{
  "source": "patent US20170056473A1",
  "about": "(published 2017)",
  "assay_in_all_cases": "cytokine release",
  "key": {"[1]": {"molecular_target": "T1, EBV LMP1; LMP1*167 peptide on HLA-A*02:01 (human)", "T1 peptide": "LLVDLLWLL"}, "[2]": {"molecular_target": "T2, EBV LMP1; printed as LMP1*125 (the same label as …) peptide on HLA-A*02:01 (human)", "T2 peptide": "YLQQNWWTL"}, "[3]": {"molecular_target": "T3, EBV LMP1; LMP1*125 peptide on HLA-A*02:01 (human)", "T3 peptide": "YLLEMLWRL"}, "[4]": {"molecular_target": "T4, EBV LMP1; LMP1*173 peptide on HLA-A*02:01 (human)", "T4 peptide": "WLLLFLAIL"}, "[5]": {"molecular_target": "T5, EBV LMP1; LMP1*92 peptide on HLA-A*02:01 (human)", "T5 peptide": "LLLIALWNL"}, "[6]": {"molecular_target": "T6, EBV LMP1; LMP1*32 peptide on HLA-A*02:01 (human)", "T6 peptide": "LLLALLFWL"}},
  "data": [
    {"binder": "LMP1*166 S4-12 TCR (TCR, V domains shown) Valpha: GEQVEQRPPHLSVREGDSAVIICTYTDPNSYYFFWYKQEPGAGLQLLMKVFSSTEINEGQGFTVLLNKKDKQLSLNLTAAHPGDSAVYFCAVSGTGGYKVVFGSGTRLLVSP Vbeta: NSKVIQTPRYLVKGQGQKAKMRCIPEKGHPVVFWYQQNKNNEFKFLINFQNQEVLQQIDMTEKRFSAECPSNSPCSLEIQSSEAGDSALYLCASNQLGSSYEQYFGPGTRLTVL", "values": [
      {"measurement": "binding result", "setting": "[1]", "result": "recognises"},
      {"measurement": "binding result", "setting": "[2]", "result": "no recognition"},
      {"measurement": "binding result", "setting": "[3]", "result": "no recognition"},
      {"measurement": "binding result", "setting": "[4]", "result": "no recognition"},
      {"measurement": "binding result", "setting": "[5]", "result": "no recognition"},
      {"measurement": "binding result", "setting": "[6]", "result": "no recognition"}
    ]}
  ]
}
